Results from patent US20190194323A1 (ALLAKOS, published 2019).

How the values were obtained:
Siglec-7-ECD-Fc = target: T1, Siglec-7-ECD-Fc (human, UniProt Q9Y286 19-353); assay: ligand blocking on cells, flow cytometry: antibody dilutions pre-mixed with 10 nM Siglec-7-ECD-Fc, then binding of Siglec-7-ECD-Fc to Siglec-7 ligands on A375 melanoma cells
T1 construct: also called recombinant Siglec-7-Fc fusion protein; Siglec-7-Fc; not shown: human Fc (huFc)
Method: Recombinant Siglec-7-Fc was added to A375 cells in the presence of anti-Siglec-7 antibodies at increasing concentrations and binding of the complex was detected on the cell surface.
Human melanoma cell line A375, which expresses high level of ligands for Siglec-7, was used to determine the blocking activity of anti-Siglec-7 antibodies in a cell based assay. Two-fold serial dilutions of anti-Siglec-7 antibodies (40 nM to 40 pM) were combined with 10 nM Siglec-7-ECD-Fc in FACS buffer (PBS/2% BSA) and incubated on ice for 30 minutes. 2.5×10e4 A375 cells per well were added to round bottom 96-well tissue culture plates in FACS buffer, plates were centrifuged at 400 g for 2 min, supernatant was removed and cells were re-suspended in 100 ul of the antibody-Siglec-7 complexes. After a 1 hour incubation on ice, cells were washed twice and incubated for 30 minutes with goat anti-human F(ab′)₂ fragment conjugated to AF647 (Jackson IR labs) at 1 ug/ml in FACS buffer. After two more washes, cells were fixed in PBS/2% PFA and acquired on a Novocyte flow cytometer (ACEA biosciences). IC₅₀ values for blocking were determined based on plotting mean fluorescence in the APC channel and analysis using Prism Graphpad software.

[1] = target: T2, Siglec-7 on primary human cells (NK cells, CD8+ tumor-infiltrating T cells) (human, UniProt Q9Y286 19-467); assay: cell-based or functional assay
T2 sequence (Q9Y286 19-467 limits assumed): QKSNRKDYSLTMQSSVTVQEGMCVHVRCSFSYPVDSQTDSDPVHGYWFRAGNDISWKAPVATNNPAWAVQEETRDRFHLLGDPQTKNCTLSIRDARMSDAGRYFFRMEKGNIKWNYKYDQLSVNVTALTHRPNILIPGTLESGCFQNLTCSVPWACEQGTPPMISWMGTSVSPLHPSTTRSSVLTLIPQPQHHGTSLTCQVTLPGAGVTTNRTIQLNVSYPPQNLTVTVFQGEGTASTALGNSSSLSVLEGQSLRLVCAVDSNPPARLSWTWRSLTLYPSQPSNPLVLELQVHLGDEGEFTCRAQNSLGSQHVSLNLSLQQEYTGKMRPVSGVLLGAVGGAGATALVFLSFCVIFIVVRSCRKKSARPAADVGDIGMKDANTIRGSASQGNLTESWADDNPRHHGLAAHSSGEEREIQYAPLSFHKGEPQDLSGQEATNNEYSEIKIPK

Siglec-7-ECD [2] = target: T3, Siglec-7-ECD (human, UniProt Q9Y286 19-353); assay: bio-layer interferometry (ForteBio): antibody captured on the sensor, Siglec-7-ECD as analyte, 1:1 global fit
T3 construct: also called p75; AIRM
T3 sequence (Q9Y286 19-353 limits assumed): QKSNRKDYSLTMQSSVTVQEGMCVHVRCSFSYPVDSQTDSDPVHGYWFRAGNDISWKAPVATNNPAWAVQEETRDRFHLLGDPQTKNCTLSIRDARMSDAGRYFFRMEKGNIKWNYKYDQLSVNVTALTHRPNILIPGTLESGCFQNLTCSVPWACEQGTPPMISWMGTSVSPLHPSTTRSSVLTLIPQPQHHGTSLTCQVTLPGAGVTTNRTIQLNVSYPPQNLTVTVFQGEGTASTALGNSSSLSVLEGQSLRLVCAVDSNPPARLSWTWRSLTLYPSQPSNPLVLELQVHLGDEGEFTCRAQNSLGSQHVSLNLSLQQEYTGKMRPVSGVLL
Method: A panel of antibodies was evaluated for binding to Siglec-7. The results identified anti-Siglec-7 antibodies that have improved KD values compared to commercially available anti-Siglec-7 antibodies (FIG. 7).
Antibody binding analysis was carried out by bio-layer interferometry (ForteBio). […] Antibodies were captured on anti-mouse kinetic sensors at 0.5 ug/mL; Siglec-7-ECD was used as analyte and diluted in assay buffer from 50 nM to 1.56 nM with 2× dilutions. Two-minute associations were conducted, followed by 10-minute dissociations. Results were determined relative to a control empty reference AHC sensor, and analyzed using ForteBio analysis software with 1:1 global fit parameters.

[3] = target: T2, Siglec-7 on primary human cells (NK …); assay: cell-based or functional assay; remark: listed apart in the source
Siglec-7-ECD [4] = target: T3, Siglec-7-ECD; assay: value quoted in the legend box of the internalization graph; same value as in the Figure 7 table (bio-layer interferometry)
Siglec-7-ECD [5] = target: T3, Siglec-7-ECD; assay: monovalent Fab; bio-layer interferometry (ForteBio) per Methods
Siglec-7-ECD [6] = target: T3, Siglec-7-ECD; assay: monovalent Fab; bio-layer interferometry (ForteBio) per Methods; No. 12 of Table 1 (second entry of the pair; No. 2 gives 250-500)
Siglec-7-ECD [7] = target: T3, Siglec-7-ECD; assay: monovalent Fab; bio-layer interferometry (ForteBio) per Methods; No. 13 of Table 1 (second entry of the pair; No. 6 also gives >500)
Siglec-7-ECD [8] = target: T3, Siglec-7-ECD; assay: monovalent Fab; bio-layer interferometry (ForteBio) per Methods; upper end of the range 250-500; No. 20 of Table 1
Siglec-7-ECD [9] = target: T3, Siglec-7-ECD; assay: monovalent Fab; bio-layer interferometry (ForteBio) per Methods; lower end of the range 250-500; No. 20 of Table 1

T1 sequence (Q9Y286 19-353): as the sequence (Q9Y286 19-353 limits assumed) above

B1: monoclonal antibody 3F1 (antibody, V domains shown)
VH: EFQLQQSGPEMVKPGASVKMSCKASGDSFTDYKINWVKQNNGKSLEWIGVINPDSGTTSYNQIFEGKATLTVDQSSSTAYMQVNRLTSEDSAVYYCTTWDDYSFYAMDYWGQGTSVTVSS
VL: DVLMTQTPLSLPVSLGDQASISCRSSQNIVHSNGNTYLEWFLQKPGQSPKLLIYKVSNRFSGVPDRFSGSGSGTDFTLKISRVEAEDLGVYYCFQGSHIPWTFGGGTKLEIK
- IC50 (Siglec-7-ECD-Fc): 8.5 nM
- IC50 (read off the curve) [1]: ~1 ng/mL
- Kd (Siglec-7-ECD [2]): 0.041 nM
- IC50 of Siglec-7 internalization on NK cells (24 h, PBMC; remaining surface Siglec-7 stained with 4B12-AF647) [3]: 0.013 nM
- Kd (Siglec-7-ECD [4]): 0.041 nM

B2: humanized 16H11-derived Fab, VH AK417-17 / VL AK418-2 (Fab, V domains shown)
VH: QVQLVQSGAEVKKPGSSVKVSCKASGYDFSNFWMNWVRQAPGQGLEWMGGIYPGDGEINYAQKFQGRVTITADESTSTAYMELSSLRSEDTAVYYCARDDYLRAMDIWGQGTMVTVSS
VL: DIQMTQSPSSLSASVGDRVTITCRASGNIHNYLAWYQQKPGKAPKFLLYSAKRLESGVPSRFSGSGSGTDYTLTISSLQPEDFATYYCQHFWSSPYTFGGGTKVEIK
notes: Measured as monovalent Fab; also called No. 2; No. 12
- Kd (Siglec-7-ECD [5]): 0.25 to 0.5 nM
- Kd (Siglec-7-ECD [6]): > 0.5 nM

B3: humanized 16H11-derived Fab, VH AK417-17 / VL AK419-2 (Fab, V domains shown)
VH: QVQLVQSGAEVKKPGSSVKVSCKASGYDFSNFWMNWVRQAPGQGLEWMGGIYPGDGEINYAQKFQGRVTITADESTSTAYMELSSLRSEDTAVYYCARDDYLRAMDIWGQGTMVTVSS
VL: DIQMTQSPSSLSASVGDRVTITCRASQNIHNYLAWYQQKPGKAPKFLLYSAKRLESGVPSRFSGSGSGTDYTLTISSLQPEDFATYYCQHFWSSPYTFGGGTKVEIK
notes: Measured as monovalent Fab; also called No. 6; No. 13
- Kd (Siglec-7-ECD [5]): > 0.5 nM
- Kd (Siglec-7-ECD [7]): > 0.5 nM

B4: humanized 16H11-derived Fab, VH AK417-17 / VL AK435-7 (Fab, V domains shown)
VH: QVQLVQSGAEVKKPGSSVKVSCKASGYDFSNFWMNWVRQAPGQGLEWMGGIYPGDGEINYAQKFQGRVTITADESTSTAYMELSSLRSEDTAVYYCARDDYLRAMDIWGQGTMVTVSS
VL: DIQMTQSPSSLSASVGDRVTITCRASQNIHNYLAWYQQKPGKAPKFLLYSAKRLEDGVPSRFSGSGSGTDYTLTISSLQPEDFATYYCQHFWSSPYTFGGGTKVEIK
notes: Measured as monovalent Fab; also called No. 14; No. 20
- Kd (Siglec-7-ECD [8]): ≤ 0.5 nM
- Kd (Siglec-7-ECD [5]): > 0.5 nM
- Kd (Siglec-7-ECD [9]): ≥ 0.25 nM
